Reference: article PMC7979930
Each block holds one substance with its values, some of them ahead of it.

How the values were obtained:
[1] = biological target: CBF3core, dephosphorylated (Cep3 dimer, Ctf13, Skp1) (budding yeast) (UniProt P40969+P35203+P52286); test: EMSA; settings: 1 mM DTT, 60 min on ice, 530 nM nucleosome, 106-1166 nM CBF3/CBF3core, 4% PAGE 0.2x TBE 4 C, EtBr stain, Hill fit
[2] = biological target: CEN3 CENP-A^Cse4 nucleosome (budding yeast | yeast) (UniProt P36012); test: native gel or EMSA; CBF3/CBF3core with CEN3 nucleosomes, room temperature 60 min; native agarose gels in 0.2 x TBE, SYBR Green I stain, bands quantified
[3] = biological target: CEN3 CENP-A^Cse4_∆L1 nucleosome with H2B_5mut (budding yeast | yeast) (UniProt P36012); test: as above
[4] = biological target: CEN3 CENP-A^Cse4 nucleosome with H2B_5mut (budding yeast | yeast) (UniProt P36012); test: as above
[5] = biological target: CEN3 CENP-A^Cse4_∆L1 nucleosome (budding yeast | yeast) (UniProt P36012); test: as above
[6] = biological target: CBF3, dephosphorylated (CBF3core + Ndc10 NTD) (budding yeast) (UniProt P40969+P35203+P52286+P32504); test: EMSA; settings: Ndc10 dissociates, main text says CEN3 nucleosome, Methods CEN3-601, EMSA: 10 mM Tris pH 7.4, 75 mM NaCl, 1 mM DTT, 60 min on ice, 530 nM nucleosome, 106-1166 nM CBF3/CBF3core, 4% PAGE 0.2x TBE 4 C, EtBr stain, Hill fit
[7] = Fig. 3c legend says CEN3, Supp. Fig. 4f says CEN3-601, EMSA: 10 mM Tris pH 7.4, 75 mM NaCl

Substance: ATCGAGAATCCCGGTGCCGAGGCCGCTCAATTGGTCGTAGACAGCTCTAGCACCGCTTAAACGCACGTACGCGCTGTCCCCCGCGTTTTAATATTAGTGTATTTGATTTCCGAAAGTTAAAAAAGAAATAGTAAGAAATCATCCGAT (double strand) [CEN3-601 Cse4_deltaL1 nucleosome]
Kd [1, 7]: 0.36 µM

Substance: ATCGAGAATCCCGGTGCCGAGGCCGCTCAATTGGTCGTAGACAGCTCTAGCACCGCTTAAACGCACGTACGCGCTGTCCCCCGCGTTTTAATATTAGTGTATTTGATTTCCGAAAGTTAAAAAAGAAATAGTAAGAAATCATCCGAT (double strand) [CEN3-601 Cse4_deltaL1/H2B_5mut nucleosome]
Kd [1, 7]: 0.68 µM

Substance: ATCGAGAATCCCGGTGCCGAGGCCGCTCAATTGGTCGTAGACAGCTCTAGCACCGCTTAAACGCACGTACGCGCTGTCCCCCGCGTTTTAATATTAGTGTATTTGATTTCCGAAAGTTAAAAAAGAAATAGTAAGAAATCATCCGAT (double strand) [CEN3-601 Cse4/H2B_5mut nucleosome]
Kd [1, 7]: 0.35 µM

Kd [2]: 0.32 µM
Kd [3]: 0.68 µM
Kd [4]: 0.35 µM
Kd [5]: 0.36 µM
Substance: dephosphorylated CBF3core (from UniProt P40969 1-608; P52286 1-194; P35203 1-478) (complex)

Substance: ATCGAGAATCCCGGTGCCGAGGCCGCTCAATTGGTCGTAGACAGCTCTAGCACCGCTTAAACGCACGTACGCGCTGTCCCCCGCGTTTTAATATTAGTGTATTTGATTTCCGAAAGTTAAAAAAGAAATAGTAAGAAATCATCCGAT (double strand) [CEN3-601 Cse4 nucleosome]
Kd ([1]; NucCse4/H2B, Fig. 3c legend says CEN3, Supp. Fig. 4f and Methods say CEN3-601, EMSA: 10 mM Tris pH 7.4, 75 mM NaCl): 0.32 µM
Kd [6]: 0.55 µM
